# Assay results published in US20180002383A1.
# Assays:
# [1] = biological target: human GLUT-1 glucose transporter, endogenous on cells (the 'HTLV receptor' on HeLa, 293T, Jurkat cells and human erythrocytes) (human) (UniProt P11166); test: cell-based or functional assay
# [2] = biological target: human GLUT-1 glucose transporter, endogenous on cells (the 'HTLV receptor' on HeLa, 293T, Jurkat cells and human erythrocytes) (human) (UniProt P11166)
# Chain of human GLUT-1 glucose transporter, endogenous on cells (the 'HTLV receptor' on HeLa, 293T, Jurkat cells and human erythrocytes) (human) (P11166 whole entry): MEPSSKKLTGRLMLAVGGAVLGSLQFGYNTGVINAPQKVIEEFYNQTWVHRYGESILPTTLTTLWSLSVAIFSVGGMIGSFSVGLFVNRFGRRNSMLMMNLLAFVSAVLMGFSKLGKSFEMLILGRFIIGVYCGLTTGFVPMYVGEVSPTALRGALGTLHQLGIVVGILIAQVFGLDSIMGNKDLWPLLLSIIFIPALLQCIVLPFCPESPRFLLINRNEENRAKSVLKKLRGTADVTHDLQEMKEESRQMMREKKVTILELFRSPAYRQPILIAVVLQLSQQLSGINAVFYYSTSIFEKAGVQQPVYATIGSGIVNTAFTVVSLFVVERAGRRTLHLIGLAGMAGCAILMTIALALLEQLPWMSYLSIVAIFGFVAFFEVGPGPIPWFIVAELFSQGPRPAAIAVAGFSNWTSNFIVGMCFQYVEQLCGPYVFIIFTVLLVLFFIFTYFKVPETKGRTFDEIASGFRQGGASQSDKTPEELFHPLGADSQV
Substance,2-deoxyglucose uptake (fold decrease) [1],HTLV titers (infection of 293T cells by MLV particles pseudotyped with HTLV-2 envelope) [1] [logs],Lactate accumulation in culture supernatant [1] [fold lower],fold increase of binding after overnight culture without glucose [2] [fold]
"HTLV-2 RBD (H2RBD), first 178 residues of HTLV2-SU fused to a C-terminal rabbit IgG Fc tag (rFc) (from UniProt P01868 98-324) (Fc fusion)",4,2,,
"HTLV-1 RBD (H1RBD), first 215 residues of HTLV-1 SU fused to a C-terminal rabbit IgG Fc tag (rFc) (Fc fusion)",4,,3,2
"H183FEnv, non-syncytial chimeric envelope with the N-terminal 183 amino acids of the HTLV-1 receptor",,,3,
